Assay results as given in the DeepSol protein solubility set.

Experiment: soluble on expression in E. coli; label from the status in PepcDB or PDB records

Sequence	soluble on expression in E. coli
MNTTVEKQQIITSNTEQWKMYSKLEGKEYQIHISKPKQPAPDSGYPVIYVLDGNAFFQTFHEAVKIQSVRAEKTGVSPAIIVGVGYPIEGAFSGEERCYDFTPSVISKDAPLKPDGKPWPKTGGAHNFFTFIEEELKPQIEKNFEIDKGKQTLFGHSLGGLFALHILFTNLNAFQNYFISSPSIWWNNKSVLEKEENLIIELNNAKFETGVFLTVGSLEREHMVVGANELSERLLQVNHDKLKFKFYEAEGENHASVVPTSLSKGLRFISYV	soluble
GSHMNGGRPPHHPYDAKDVSEYSCRELHYTRFLTDGPCRSAKPVTELVCSGQCGPARLLPNAIGRVKWWRPNGPDFRCIPDRYRAQRVQLLCPGGAAPRSRKVRLVASCKCKR	soluble
MGSDKIHHHHHHLNTTLSEYSIENLYGLYNHSLKFNDGESIAILHGPNGVGKTALLRSITYLFNSDFSSLSKIPFSRLFAKLSDNTEIIVTRKGVTKEQLLKHSQELHKISIEIKSKDKTTTSFSLNEAQLRPELLPPWIVLSDDGSYIDERNGMLFPEEFLHQSLFGKNKQKEIRNRETATQILEKIKVHFVETNRLYRSNSDTTWKRKKEKEMVASVDECAKHLVVLISTALKDYGKKSQELDQSFPHRFISEPIAQMSLDKLKTRLNELASQLKKLRKIGLLDAEGIQPFDPESLDKVEKSKLEIMNLYVRDSEQKLAVFDNLSKRIQVLLDGLNSKFKNKNIQLNKERGLIARGPNDFDLSLSDLSSGEQHEIVLLYELLFKVAPNTLVLIDEPELSLHMTWQKSFLPELLSISREIGFSSILATHSPFIVGDRYDLLISLDTKNNNDSME	not soluble
MDSLKEAEIREVFREFDKNGDGRITRQELEVALLQLGEKASNSKIETMIEQADLDGNGCIDIDEFLNVLRRQICDPKEERELRDVFNVFDKNGDGVISIDDLIFVMCQLGEKLTETEAKEMIKQGDLDHDGMIDFQEFVNIIKGQ	soluble
MSLQRARCYLIGETAVVLELEPPVTLASQKRIWRLAQRLVDMPNVVEAIPGMNNITVILRNPESLALDAIERLQRWWEESEALEPESRFIEIPVVYGGAGGPDLAVVAAHCGLSEKQVVELHSSVEYVVWFLGFQPGFPYLGSLPEQLHTPRRAEPRLLVPAGSVGIGGPQTGVYPLATPGGWQLIGHTSLSLFDPARDEPILLRPGDSVRFVPQKEGVCEGHHHHHH	not soluble
MTFEAITREWYQRRYDRWSESYRLEMMSTFESDVFPYIGYRPIKEIKPLELMAVLSKLEKRGATEKMRKVRQRCGEVWKYAIITGRAEYNPAPDLASAFAPHKREHLEHHHHHH	not soluble
MLKRCNAKYSCEIIKEKRADGDDRMATIDLQKKSVKIVLEKKQLTKVTARVGLVLDITGSMRPLYKNGTVQNVVERILAVADQFDDNGLLDVWVYDNEFSRLKPVSEKDFSGYVDREILNNDRLHKFGRNDEPPVMKDVLRKYVTEEPSSYPAFIVFINDGGCKKSIKPIIEASSDKPVFWQFVGIGNGNFDFLNKLDTLEGRVIDNTNFLHIEEIDRISDDELYDALLAEFPFWLKEAKEKGIVREQEPPAEKPKKKGFFSRLFSKLEHHHHHH	soluble
MVEVVRNKRPPRGLVPRLRRALAALMEELGVGDKGVTVILTGDRRLRALKREWWGEAGKAYRKSVGPFGPGLPRPRAKCQPLIISTWRPHF	soluble
EKDSQSPKIRQKYLRQYPELNSLIPAVVTEVREKEATAALQNGQIIIIPWEGMSWARPALKRGGWVGKSPTKAQQVVAAGDIIYVHPTEKSWQLAQIP	not soluble
GPGSMLRRLFTRMAPRAKNHEELMKMLREGSQVGKMAASEESGVTFRDIRTVPIGESNEAKRRRLLYQSTYRGMVEMDIILGAFARQNIETLSAPQLEEYDAVLRHFDNDLYKWLVMDVEAPAEVAQIPVFQSLHSFVRDEREKLLKCAS	soluble
MSLAKQDELVFLPLGGVGEIGMNLALYGYGPPEHRQWIMVDCGVTFPGPDLPGVDLVLPDIRFLASERKNLKAIIITHAHEDHYGALADLWPGLNVPVYASGFTAGLLEAKRNFEKAKIGEVPVTPFKAGDTINVGPFSIEGVAVNHSIPEPMSLMIRTPVGNVIHTGDWKIDHEPSLGPLTDETRFRQLGDEGVLALMCDSTNALRDGVSPSEKDVSESLRKIIENAEGRVAITTFSSNVGRIRTVAEAAEAAGREVLLLGSSLKRVVDVAQDVGLMEGVKPFISEEEYGYIPRDKVVVILTGSQGEARAALAKLSRDEMRNVAFAAGDIVVFSSRAIPGNEKAIQDIKNGLVEQGVHIITDTEALVHVSGHPRRNELQRMYEWTRPKIVVPVHGEATHLTAHKELAEQSGIALVPRVRNGDILRLAPGEGHHHHHH	soluble
MSLRSMFMYKSHIPEDCEEEAQITAAKLILLVDDDPVFRRMTKGYLQKYGYQVIEAENGLDGLRKLRDHEPDLILCDLSMPVLNGIEFVEEVSSSYPSLPLVVVSATEEMADVAKALRFGIKDFLPKPITNHSHLASAIEKVLANDDHQRDFASCWYGADRQGSIPEEQELHWHLQYLKDNPNAAKELLEALLPEKDSQLGSWKCSYRLLQSAELMPLVFDYAWLMNGQFVFYVVDAASHRECGAASTLLVRALFHDYLRNLRNFSVELKDLAEIIERGIHCSECIGKVSALFGVADLADGTLSLLPAGLDCQWSNGYVHNRITSGVQLGDNSLRNFITKDLPIRAACQISLSKPSAYSFTLDLYQGEGHHHHHH	soluble
MCENTLAQQKTEEFAPVSDLRAEAYGSTVFLHWTPPYDNPMIPLSESFESGIPAIWKTIDADGDGYNWMHLTNFTGQSGLCVSSASYIGGVGALTPDNYLITPELKLPTDALVEIIYWVCTQDLTAPSEHYAVYSSSTGNNAADFVNLLYEETLTAKRIQSPELIRGNRTQGVWYQRKVVLPNDTKYVAFRHFNSTDNFWLNLDEVSILYTPLPRRAPCPHPGGYTYSVFRDGQKIASGLSALAYIDTDVPYGTQDYCVQVNYLQGDSYKVCKNIVVANSANIYGADKPFALTVVGKTIVASAFKGEITLYDIRGRLIASGCDTLRYKAENGFYLIKIQVNGTVYTEKIQIQ	not soluble
MGSDKIHHHHHHMTTRERIIETAITLFNEKGTKAVTTNHIAAAMEISPGNLYYHFRNKEEIIRAIFDQMDAVGFEDYEQIIAEHPAGSLAAMEETFLMIQRFNWRYRFFKRELTSLILSDPLLREKHLRVHQAMLRLVRHSIKSSIAQGVLRPMEEDELGLFAEEIWLLTLFWLNYLEVGGEDVTESTLRRGNELVRRTVCCRLTEEGARMLGRSGPAAP	not soluble
MLITVYCVRRDLSEVTFSLQVSPDFELRNFKVLCEAESRVPVEEIQIIHMERLLIEDHCSLGSYGLKDGDIVVLLQKDNVGPRAPGRAPNQPRVDFSGIAVPGTSSSRPQHPGQQQQRTPAAQRSQGLASGEKVAGLQGLGGPALIRSMLLSNPHDLSLLKERNPPLAEALLSGSLETFSQVLMEQQREKALREQERLRLYTADPLDREAQAKIEEEIRQQNIEENMNIAIEEAPESFEQVTMLYINCKVNGHPLKAFVDSGAQMTIMSQACAERCNIMRLVDRRWAGVAKGVGTQRIIGRVHLAQIQIEGDFLQCSFSILEDQPMDMLLGLDMLRRHQCSIDLKKNVLVIGTTGTQTYFLPEGELPLCSRMVSGQDESSDKEITHSVMDSGRKEH	soluble
MSLSSERLIYLPLGGAGEIGMNAYVYGYGKPGKERLIVVDLGVAFPDMDTSPGVDLIIPDIAWLEERRDQIEAIFITHAHEDHIGAVAHTYDRLRAPIYTRKFTANIAKRKMDEYGHPDDAVTTVAPWPQQTTVGPFKVGFLPMSHSIPESSSLVIDVAGDRLIHSGDFKIDMTPGVGEPYDPELWADVSKDGVKALICDSTNVFSQHAGRSEATVGPEIEKLLGTAQGMVVATTFASNVARVKTLADAGERAGRSVVLLGRAMKRMVEASLETGVMKDFPPVVSPEEARGIPRENLMLLVTGSQGERRAASAQLARGKYMGLEMKEGDMFLFSSKTIPGNERGVIKVINAFSEMGVDIVDDSSGLYHVSGHANRPDLETLHDVVKPQILIPMHGEHRHLREHTKIANAKGMKGVLAVNGMMIDLSGNEPKVVEYVDSGRTYLDGSTQIGAMDGVVRDRIRMALNGHVTVTVILDENDEALGDPWVDAMGLPEQGRSKTSLVDVLEADLAQFLGRANAKTLRDDDKLHDGLKRTVRQSANDEIGKKPEVTIVVSRLSEGHHHHHH	soluble
MSLGPILVASEDYGRRVELSAMLRGFGYRVIEAENGLRTIDLLHRRKNIVLALLDVVMSDLSVGDLIKMIRVAGVAVPIVVIAQQENQELLQKALTAGAIDYWIHPVTLLRLRVTLDTLALISALEREVHYIRRKKENHLRFSDLSIKSRAMQIVLEQSKRAASSLQNLLIEGEVGTGRETLARIIHHEGLLSEGDFIRFQCLAIVDPEEENHQWFKEFIPLVSSLEKGTLCLCDVDRLEPIQQKRFMHYLKEREKATKDKVFPFRIIAISTSRLSDLVKEGFFLHSLFEQFSQLSISVPALRELRDDFPDLTQRLIDRIITETGRSHVHGLAGSALSLLMQYDWPGNRNGLENFLFRAILLSDGPLLTVRDFPQLMGNSLMNVPKIIESNMQEDHEQESVKFLDVDGHVRTFAEMERDIIEKAFKHYKGHMSEIARRLRIGRSTLYRKIEGLRAISSQEGHHHHHH	soluble
MYALAFDLKIEILKKEYGEPYNKAYDDLRQELELLGFEWTQGSVYVNYSKENTLAQVYKAINKLSQIEWFKKSVRDIRAFKVEDFSDFTEIVKS	not soluble
QVQLQESGGGLVQPGGSLRLSCAASGFTFSNSAMSWVRQAPGKGLEWVSSISGSGGNTYSADSVKGRFTISRDNAKNSLYLQMNSLRAEDTAVYYCARDWYGMDVWGQGTTVTVSS	soluble
MGSDKIHHHHHHMSEALNVDIQEIAKFEKMAATWWDPDGEFKPLHQLNPLRLNYIDQTSGGLFGKKVLDVGCGGGILSESMARLGANVTGIDMGNEPLEVARLHALETGVSLNYERCTAEEHREVNREAYDVVTCMEMLEHVPDPLSVIAACCDMVKPGGYVFFSTINRNLRSYVETILGAEYLLKMLPVGTHDHGKFIRPSELIAMVDQTELLCKDATGVTYNPITGTFRYTSSVEVNYMIATVKPLE	not soluble
MAHHHHHHMQRMRRIGREEEAARLVWNHVSHCSSALLRQCIRRPNLLEEVTVALCRTMHRGISGRKDSWMGHRSLAVLRSGAALRQFTPALCIPLCAAALDCGVHFATVQQHVAEIYRWDERTERWVLNMVRLIADCHSALMRVPLNCSLHSSYMRGLVQRVAYELPTLSSTCSIEVQVPSRNKLLALWTIVNDDVANGRLRQLTCQLFLDPVARSAFKEMRLADEVDNCNSGTDGGGGSKCRVPRSTLKGLLNEEVFVSVAVNCTTEHAFAIFMNAFLSTRQARDKLRYMHLVLSEMPFESTDICPRCTTETGNCEVS	not soluble
MGSDKIHHHHHHMGDLSFIAINDKCEVVLDNEIYKSNIQGIEEKYIAISLPVANGTYAIMHKGDMTEIWCYHDNQVYSFTSTVIERKKEDAIKLILISKPSYENIKRVQRRKNFRVDLIESIKYKVLNKNVVKTEIEKLKEASEEFSDGYMIDLSGGGLKIRIKQKPNVGDSIFVNLPIGDQKLFLISTCVRAIREVNGEYLCGLEFDDDIDERIREHIINYTFNIMRKHMKKR	not soluble
MTQANLSETLFKPRFKHPETSTLVRRFNHGAQPPVQSALDGKTIPHWYRMINRLMWIWRGIDPREILDVQARIVMSDAERTDDDLYDTVIGYRGGNWIYEWATQAMVWQQKACTEEDPQLSGRHWLHAATLYNIAAYPHLKGDDLAEQAQALSNRAYEEAAQRLPGTMRQMEFTVPGGAPITGFLHMPKGDGPFPTVLMCGGLDAMQTDYYSLYERYFAPRGIAMLTIDMPSVGFSSKWKLTQDSSLLHQHVLKALPNVPWVDHTRVAAFGFRFGANVAVRLAYLESPRLKAVACLGPVVHTLLSDFKCQQQVPEMYLDVLASRLGMHDASDEALRVELNRYSLKVQGLLGRRCPTPMLSGYWKNDPFSPEEDSRLITSSSADGKLLEIPFNPVYRNFDKGLQEITGWIEKRLC	not soluble
